Assay results as given in paper PMC10904395, “The Deinococcus protease PprI senses DNA damage by directly interacting with single-stranded DNA”.

Experiments:
DG-PprI (IrrE) [1] = target: T1, DG-PprI (IrrE) (Deinococcus geothermalis, UniProt Q1J1D6 1-289); test: EMSA; 1 or 2 uM protein, 0.1 uM RNA; EMSA: 150 mM NaCl, 20 mM Tris-HCl pH 8.0, 0.1 mg/ml BSA, 0.1 uM FAM-labeled nucleic acid, 0/1/2 uM protein, room temperature 30 min, 10% native PAGE in 1x TB; conditions: protein: recombinant; tags: tag removed; label: 5' FAM
T1 sequence: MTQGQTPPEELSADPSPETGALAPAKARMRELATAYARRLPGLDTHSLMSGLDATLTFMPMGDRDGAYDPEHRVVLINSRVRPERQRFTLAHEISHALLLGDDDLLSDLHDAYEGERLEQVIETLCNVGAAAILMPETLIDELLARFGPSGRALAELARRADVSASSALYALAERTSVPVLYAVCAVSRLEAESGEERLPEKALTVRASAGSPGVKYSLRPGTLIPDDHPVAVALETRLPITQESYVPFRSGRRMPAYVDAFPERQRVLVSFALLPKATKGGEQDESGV

DG-PprI (IrrE) [2] = target: T1, DG-PprI (IrrE); test: X-ray crystallography; Mn2+; 2.2 A; PprI dimer in asymmetric unit; EMSA: 150 mM NaCl, 20 mM Tris-HCl pH 8.0, 0.1 mg/ml BSA, 0.1 uM FAM-labeled nucleic acid, 0/1/2 uM protein, room temperature 30 min, 10% native PAGE in 1x TB; conditions: protein: recombinant; tags: tag removed
DG-PprI (IrrE) [3] = target: T1, DG-PprI (IrrE); test: EMSA; 1 or 2 uM protein, 0.1 uM DNA; EMSA: 150 mM NaCl, 20 mM Tris-HCl pH 8.0, 0.1 mg/ml BSA, 0.1 uM FAM-labeled nucleic acid, 0/1/2 uM protein, room temperature 30 min, 10% native PAGE in 1x TB; conditions: protein: recombinant, tags: tag removed

## CGCUCUUCGCCAUUCUCUUGAAGUUUCAAACUUGG (ssRNA) [35nt RNA]
DG-PprI (IrrE) [1]
  binding result: no binding

## TCATGAGCAGTTTTTTTTTTTTTTTTTTT (ssDNA) [29nt ssDNA (co-crystal)]
DG-PprI (IrrE) [2]
  binding result: binds

## CGCTCTTCGCCATTCTCTTGAAGTTTCAAACTTGG (ssDNA) [35nt ssDNA]
DG-PprI (IrrE) [3]; label: 5' FAM
  binding result: binds

B1: 35 bp dsDNA (dsDNA)
DNA 1: CGCTCTTCGCCATTCTCTTGAAGTTTCAAACTTGG
DNA 2: CCAAGTTTGAAACTTCAAGAGAATGGCGAAGAGCG
DG-PprI (IrrE) [3]; label: 5' FAM on F strand, blunt
  binding result: no binding
